Starred links: 1 amine or outer side, 2 acyl side, 3 side chain; linkers in the order of their positions; H or OH if unused. Non-standard residues stand in square brackets, D forms with d. No end group written: not given here. AMCB = 2-amino-5-(4-chloro-2-methylphenyl)pentanoic acid, Cc1cc(Cl)ccc1CCC[C@H](N[*:1])C(=O)[*:2]; 2CF3,4F‑APPA = 2-amino-5-(4-fluoro-2-(trifluoromethyl)phenyl)pentanoic acid; Bip(2'-Et-4'-OMe) = CCc1cc(OC)ccc1-c1ccc(C[C@H](N)C(=O)O)cc1; Leu(5,5,5,5',5',5'-F6) = N[C@@H](CC(C(F)(F)F)C(F)(F)F)C(=O)O; 2F‑APPA = 2-amino-5-(2-fluorophenyl)pentanoic acid; αMePhe(2-F) = C[C@](N)(Cc1ccccc1F)C(=O)O; hhPhe = N[C@@H](CCCc1ccccc1)C(=O)O; CNB = not defined here; Ac3c = NC1(C(=O)O)CC1; Aib = CC(C)(N)C(=O)O

The target in one test is human glucagon receptor (human, UniProt P47871 26-477). In words: cell-based or functional assay.
For H[Ac3c]QGTFTSD[Bip(2'-Et-4'-OMe)][2CF3,4F‑APPA] [Seq. ID. No. 72: H-(ACP)-QGTFTSD-Bip(OMe)-(2CF3,4F-APPA)], the “inhibition of cAMP production, 1 nM” value came out at 9 pmol/ml/µg prt; the “inhibition of cAMP production, 10 nM” value worked out at 6 pmol/ml/µg prt; the “inhibition of cAMP production, 100 nM” value was 5 pmol/ml/µg prt; the “inhibition of cAMP production, 1 µM” value was 3 pmol/ml/µg prt. The “inhibition of cAMP production, 10 µM” value turned out to be 0 pmol/ml/µg prt.

As for H[Aib]QGT[αMePhe(2-F)]TSD[Bip(2'-Et-4'-OMe)][AMCB] [Seq. ID. No. 40: H-Aib-QGT-(α-Me-2F-Phe)-TSD-Bip(OMe)-(AMCB)], the “inhibition of cAMP production, 1 nM” value stood at 18 pmol/ml/µg prt; the “inhibition of cAMP production, 10 nM” value was found to be 16 pmol/ml/µg prt; the “inhibition of cAMP production, 100 nM” value came to 12 pmol/ml/µg prt; the “inhibition of cAMP production, 1 µM” value is 8 pmol/ml/µg prt. The “inhibition of cAMP production, 10 µM” value was determined as 6 pmol/ml/µg prt.

For the molecule H[Aib][CNB]GTFTSD[Bip(2'-Et-4'-OMe)][hhPhe] (reading uncertain) [Seq. ID. No. 29: H-Aib-(CNB)-GTFTSD-Bip(OMe)-(APPA)], the “inhibition of cAMP production, 1 nM” value came out at 20 pmol/ml/µg prt; the “inhibition of cAMP production, 10 nM” value came to 18 pmol/ml/µg prt; the “inhibition of cAMP production, 100 nM” value is 16 pmol/ml/µg prt; the “inhibition of cAMP production, 1 µM” value stood at 14 pmol/ml/µg prt. The “inhibition of cAMP production, 10 µM” value came to 12 pmol/ml/µg prt.

With H[Aib][CNB]GTFTSD[Bip(2'-Et-4'-OMe)][2F‑APPA] (reading uncertain) [Seq. ID. No. 77: H-Aib-(CNB)-GTFTSD-Bip(OMe)-(2F-APPA)], the “inhibition of cAMP production, 1 nM” value was 20 pmol/ml/µg prt; the “inhibition of cAMP production, 10 nM” value came to 18 pmol/ml/µg prt; the “inhibition of cAMP production, 100 nM” value stood at 16 pmol/ml/µg prt; the “inhibition of cAMP production, 1 µM” value worked out at 14 pmol/ml/µg prt. Also, the “inhibition of cAMP production, 10 µM” value was determined as 12 pmol/ml/µg prt.

H[Aib][Leu(5,5,5,5',5',5'-F6)]GT[αMePhe(2-F)]TSD[Bip(2'-Et-4'-OMe)][AMCB] [Seq. ID. No. 237: H-Aib-(Hfl)-GT-(α-Me-2F-Phe)-TSD-Bip(OMe)-(AMCB)]: the “inhibition of cAMP production, 1 nM” value is 21 pmol/ml/µg prt; the “inhibition of cAMP production, 10 nM” value was found to be 19 pmol/ml/µg prt; the “inhibition of cAMP production, 100 nM” value was determined as 18 pmol/ml/µg prt; the “inhibition of cAMP production, 1 µM” value turned out to be 18 pmol/ml/µg prt. The “inhibition of cAMP production, 10 µM” value was determined as 16 pmol/ml/µg prt.

The target in another test is human GLP-1 receptor (human, UniProt P43220 24-463). In words: cell-based or functional assay.
human GLP-1 receptor, sequence (P43220 24-463): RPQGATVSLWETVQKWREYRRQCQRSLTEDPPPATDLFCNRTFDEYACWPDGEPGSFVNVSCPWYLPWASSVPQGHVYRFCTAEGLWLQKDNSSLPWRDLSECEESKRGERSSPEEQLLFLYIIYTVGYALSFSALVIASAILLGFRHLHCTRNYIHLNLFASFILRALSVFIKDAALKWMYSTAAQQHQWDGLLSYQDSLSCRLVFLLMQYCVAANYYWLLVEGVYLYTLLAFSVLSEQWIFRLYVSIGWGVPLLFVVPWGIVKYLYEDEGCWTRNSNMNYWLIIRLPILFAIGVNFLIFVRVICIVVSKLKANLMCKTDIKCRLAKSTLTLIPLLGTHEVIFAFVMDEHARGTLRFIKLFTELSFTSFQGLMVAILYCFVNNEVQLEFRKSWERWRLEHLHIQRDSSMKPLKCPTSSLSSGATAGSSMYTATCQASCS
With H[Ac3c]QGTFTSD[Bip(2'-Et-4'-OMe)][2CF3,4F‑APPA] [Seq. ID. No. 72: H-(ACP)-QGTFTSD-Bip(OMe)-(2CF3,4F-APPA)], the “cAMP release, % activity, 1 nM” value came out at 45%; the “cAMP release, % activity, 10 nM” value amounted to 84%; the “cAMP release, % activity, 100 nM” value was 90%; the “cAMP release, % activity, 1 µM” value came out at 99%. Moreover, the “cAMP release, % activity, 10 µM” value was 99%.

Take H[Aib]QGT[αMePhe(2-F)]TSD[Bip(2'-Et-4'-OMe)][AMCB] [Seq. ID. No. 40: H-Aib-QGT-(α-Me-2F-Phe)-TSD-Bip(OMe)-(AMCB)]: the “cAMP release, % activity, 1 nM” value was determined as 38%; the “cAMP release, % activity, 10 nM” value is 77%; the “cAMP release, % activity, 100 nM” value was found to be 85%; the “cAMP release, % activity, 1 µM” value amounted to 94%. Further, the “cAMP release, % activity, 10 µM” value was determined as 97%.

H[Aib][CNB]GTFTSD[Bip(2'-Et-4'-OMe)][hhPhe] (reading uncertain) [Seq. ID. No. 29: H-Aib-(CNB)-GTFTSD-Bip(OMe)-(APPA)]: the “cAMP release, % activity, 1 nM” value amounted to 96%; the “cAMP release, % activity, 10 nM” value worked out at 99%; the “cAMP release, % activity, 100 nM” value stood at 99%; the “cAMP release, % activity, 1 µM” value was found to be 99%. The “cAMP release, % activity, 10 µM” value came to 99%.

In the case of H[Aib][CNB]GTFTSD[Bip(2'-Et-4'-OMe)][2F‑APPA] (reading uncertain) [Seq. ID. No. 77: H-Aib-(CNB)-GTFTSD-Bip(OMe)-(2F-APPA)], the “cAMP release, % activity, 1 nM” value turned out to be 40%; the “cAMP release, % activity, 10 nM” value turned out to be 81%; the “cAMP release, % activity, 100 nM” value was 87%; the “cAMP release, % activity, 1 µM” value is 95%. Moreover, the “cAMP release, % activity, 10 µM” value turned out to be 98%.

As to H[Aib][Leu(5,5,5,5',5',5'-F6)]GT[αMePhe(2-F)]TSD[Bip(2'-Et-4'-OMe)][AMCB] [Seq. ID. No. 237: H-Aib-(Hfl)-GT-(α-Me-2F-Phe)-TSD-Bip(OMe)-(AMCB)], the “cAMP release, % activity, 1 nM” value turned out to be 96%; the “cAMP release, % activity, 10 nM” value is 99%; the “cAMP release, % activity, 100 nM” value turned out to be 99%; the “cAMP release, % activity, 1 µM” value was 99%. The “cAMP release, % activity, 10 µM” value came to 99%.

Values taken from patent US20120021972A1 (CADILA HEALTHCARE, published 2012).
